Measurements taken from the supplement of paper PMC9112550, “Optimization of the antimicrobial peptide Bac7 by deep mutational scanning” (BMC Biology, 2022).

These sequences were tested on Escherichia coli TOP10 (assay: shrunken log2 fold change of peptide-encoding DNA abundance (4.5 h post-induction vs induction); higher = less antimicrobial activity (less host growth inhibition)). Settings: time post-induction: 4.5 h; library: site-saturation at positions 5, 18, 19, 20.
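Also: peptides expressed intracellularly from a pBAD plasmid library in pooled LB shake-flask culture, induced with 0.3% L-arabinose, DNA abundance read by NGS, three biological replicates, DESeq2 with apeglm shrinkage.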

Row | Sequence | shrunken log2 fold change
1 | RRIRDRPPRLPRPRPRPVVTPRP | 0.689
2 | RRIRDRPPRLPRPRPRPVVVPRP | 0.328
3 | RRIRDRPPRLPRPRPRPVWPPRP | 0.225
4 | RRIRDRPPRLPRPRPRPVWVPRP | -0.203
5 | RRIRDRPPRLPRPRPRPVWWPRP | -0.00968
6 | RRIRDRPPRLPRPRPRPWDVPRP | -0.00145
7 | RRIRDRPPRLPRPRPRPWEPPRP | -1.35
8 | RRIRDRPPRLPRPRPRPWFGPRP | 0.228
9 | RRIRDRPPRLPRPRPRPWFNPRP | -0.161
10 | RRIRDRPPRLPRPRPRPWFSPRP | -0.317
11 | RRIRDRPPRLPRPRPRPWGPPRP | -0.0594
12 | RRIRDRPPRLPRPRPRPWGWPRP | 0.226
13 | RRIRDRPPRLPRPRPRPWIMPRP | -0.0114
14 | RRIRDRPPRLPRPRPRPWKEPRP | -0.0075
15 | RRIRDRPPRLPRPRPRPWLGPRP | 0.109
16 | RRIRDRPPRLPRPRPRPWLLPRP | 0.0241
17 | RRIRDRPPRLPRPRPRPWMPPRP | -0.11
18 | RRIRDRPPRLPRPRPRPWMWPRP | 0.00708
19 | RRIRDRPPRLPRPRPRPWNIPRP | 0.0629
20 | RRIRDRPPRLPRPRPRPWRTPRP | -0.0162
21 | RRIRDRPPRLPRPRPRPWSRPRP | -0.612
22 | RRIRDRPPRLPRPRPRPWTNPRP | -0.111
23 | RRIRDRPPRLPRPRPRPWTRPRP | -0.231
24 | RRIRDRPPRLPRPRPRPWTSPRP | 0.21
25 | RRIRDRPPRLPRPRPRPWVGPRP | 0.0332

Row | Sequence | shrunken log2 fold change
26 | RRIRDRPPRLPRPRPRPWVTPRP | -0.0629
27 | RRIRDRPPRLPRPRPRPWWGPRP | -0.00301
28 | RRIRDRPPRLPRPRPRPYEKPRP | -0.191
29 | RRIRDRPPRLPRPRPRPYELPRP | -0.118
30 | RRIRDRPPRLPRPRPRPYFEPRP | -0.3
31 | RRIRDRPPRLPRPRPRPYFIPRP | -0.324
32 | RRIRDRPPRLPRPRPRPYGNPRP | -0.117
33 | RRIRDRPPRLPRPRPRPYHSPRP | -0.198
34 | RRIRDRPPRLPRPRPRPYIMPRP | -0.42
35 | RRIRDRPPRLPRPRPRPYIRPRP | -0.12
36 | RRIRDRPPRLPRPRPRPYKIPRP | -1.46
37 | RRIRDRPPRLPRPRPRPYLIPRP | -0.387
38 | RRIRDRPPRLPRPRPRPYLTPRP | -0.0558
39 | RRIRDRPPRLPRPRPRPYLYPRP | -0.0408
40 | RRIRDRPPRLPRPRPRPYNEPRP | -0.0252
41 | RRIRDRPPRLPRPRPRPYPDPRP | -0.27
42 | RRIRDRPPRLPRPRPRPYPRPRP | 0.0039
43 | RRIRDRPPRLPRPRPRPYQYPRP | -0.0404
44 | RRIRDRPPRLPRPRPRPYRQPRP | 0.0922
45 | RRIRDRPPRLPRPRPRPYVTPRP | -0.131
46 | RRIRDRPPRLPRPRPRPYWDPRP | -0.766
47 | RRIRDRPPRLPRPRPRPYWFPRP | -0.579
48 | RRIRDRPPRLPRPRPRPYWMPRP | -0.541
49 | RRIRDRPPRLPRPRPRPYWNPRP | -0.602
50 | RRIRDRPPRLPRPRPRPYWSPRP | -0.503

Row | Sequence | shrunken log2 fold change
51 | RRIRDRPPRLPRPRPRPYYKPRP | -0.195
52 | RRIRDRPPRLPRPRPRPYYNPRP | -1.01
53 | RRIRDRPPRLPRPRPRPYYWPRP | -0.184
54 | RRIRERPPRLPRPRPRPAAGPRP | 0.315
55 | RRIRERPPRLPRPRPRPAALPRP | -0.0784
56 | RRIRERPPRLPRPRPRPACAPRP | 0.455
57 | RRIRERPPRLPRPRPRPACPPRP | -0.0623
58 | RRIRERPPRLPRPRPRPADFPRP | 0.0432
59 | RRIRERPPRLPRPRPRPAEDPRP | 0.0107
60 | RRIRERPPRLPRPRPRPAFTPRP | -0.0832
61 | RRIRERPPRLPRPRPRPAGIPRP | -0.536
62 | RRIRERPPRLPRPRPRPAGVPRP | 0.157
63 | RRIRERPPRLPRPRPRPAHLPRP | 0.301
64 | RRIRERPPRLPRPRPRPALTPRP | 0.131
65 | RRIRERPPRLPRPRPRPAMWPRP | 0.293
66 | RRIRERPPRLPRPRPRPANCPRP | -0.65
67 | RRIRERPPRLPRPRPRPANLPRP | -0.254
68 | RRIRERPPRLPRPRPRPAPDPRP | 0.26
69 | RRIRERPPRLPRPRPRPAPKPRP | 0.678
70 | RRIRERPPRLPRPRPRPAQTPRP | 0.0281
71 | RRIRERPPRLPRPRPRPARHPRP | -0.00285
72 | RRIRERPPRLPRPRPRPARPPRP | 0.626
73 | RRIRERPPRLPRPRPRPARQPRP | 0.0428
74 | RRIRERPPRLPRPRPRPASGPRP | 0.133
75 | RRIRERPPRLPRPRPRPATMPRP | -0.324

Row | Sequence | shrunken log2 fold change
76 | RRIRERPPRLPRPRPRPAVAPRP | 0.0153
77 | RRIRERPPRLPRPRPRPAVDPRP | 0.116
78 | RRIRERPPRLPRPRPRPAVFPRP | 0.154
79 | RRIRERPPRLPRPRPRPAWLPRP | 0.471
80 | RRIRERPPRLPRPRPRPAYDPRP | -0.394
81 | RRIRERPPRLPRPRPRPAYNPRP | -0.449
82 | RRIRERPPRLPRPRPRPAYYPRP | -0.356
83 | RRIRERPPRLPRPRPRPCACPRP | -0.78
84 | RRIRERPPRLPRPRPRPCCEPRP | -0.366
85 | RRIRERPPRLPRPRPRPCDEPRP | 0.011
86 | RRIRERPPRLPRPRPRPCDRPRP | -0.187
87 | RRIRERPPRLPRPRPRPCEEPRP | -0.125
88 | RRIRERPPRLPRPRPRPCFDPRP | -0.144
89 | RRIRERPPRLPRPRPRPCFGPRP | -0.252
90 | RRIRERPPRLPRPRPRPCGCPRP | -0.0805
91 | RRIRERPPRLPRPRPRPCGGPRP | -0.0228
92 | RRIRERPPRLPRPRPRPCGVPRP | 0.0484
93 | RRIRERPPRLPRPRPRPCHHPRP | -0.209
94 | RRIRERPPRLPRPRPRPCHSPRP | -0.0339
95 | RRIRERPPRLPRPRPRPCHWPRP | -0.0135
96 | RRIRERPPRLPRPRPRPCIQPRP | -1.15
97 | RRIRERPPRLPRPRPRPCISPRP | -0.218
98 | RRIRERPPRLPRPRPRPCIWPRP | -0.0915
99 | RRIRERPPRLPRPRPRPCKRPRP | -0.294
100 | RRIRERPPRLPRPRPRPCLFPRP | -0.222

Row | Sequence | shrunken log2 fold change
101 | RRIRERPPRLPRPRPRPCLKPRP | 0.0135
102 | RRIRERPPRLPRPRPRPCMHPRP | -0.0148
103 | RRIRERPPRLPRPRPRPCPDPRP | -0.0864
104 | RRIRERPPRLPRPRPRPCQEPRP | -0.181
105 | RRIRERPPRLPRPRPRPCSDPRP | -0.5
106 | RRIRERPPRLPRPRPRPCSGPRP | -0.434
107 | RRIRERPPRLPRPRPRPCSIPRP | -0.471
108 | RRIRERPPRLPRPRPRPCTLPRP | -0.407
109 | RRIRERPPRLPRPRPRPCTMPRP | 0.018
110 | RRIRERPPRLPRPRPRPCTPPRP | -0.239
111 | RRIRERPPRLPRPRPRPCVAPRP | 0.258
112 | RRIRERPPRLPRPRPRPCVKPRP | -0.00643
113 | RRIRERPPRLPRPRPRPCVRPRP | -0.447
114 | RRIRERPPRLPRPRPRPCYHPRP | -0.744
115 | RRIRERPPRLPRPRPRPCYMPRP | -0.0163
116 | RRIRERPPRLPRPRPRPCYVPRP | -0.716
117 | RRIRERPPRLPRPRPRPDAHPRP | -0.308
118 | RRIRERPPRLPRPRPRPDCIPRP | 0.0113
119 | RRIRERPPRLPRPRPRPDCKPRP | 0.0476
120 | RRIRERPPRLPRPRPRPDEKPRP | 0.147
121 | RRIRERPPRLPRPRPRPDGEPRP | -0.115
122 | RRIRERPPRLPRPRPRPDHKPRP | -0.501
123 | RRIRERPPRLPRPRPRPDKCPRP | -0.121
124 | RRIRERPPRLPRPRPRPDKKPRP | 0.0282
125 | RRIRERPPRLPRPRPRPDKVPRP | -0.121

Row | Sequence | shrunken log2 fold change
126 | RRIRERPPRLPRPRPRPDLLPRP | -0.183
127 | RRIRERPPRLPRPRPRPDLSPRP | -0.349
128 | RRIRERPPRLPRPRPRPDNFPRP | 0.00707
129 | RRIRERPPRLPRPRPRPDNKPRP | -0.75
130 | RRIRERPPRLPRPRPRPDNLPRP | -0.00994
131 | RRIRERPPRLPRPRPRPDPAPRP | 2.64
132 | RRIRERPPRLPRPRPRPDPLPRP | 0.00979
133 | RRIRERPPRLPRPRPRPDPPPRP | 0.32
134 | RRIRERPPRLPRPRPRPDPTPRP | -0.0306
135 | RRIRERPPRLPRPRPRPDQKPRP | -0.0097
136 | RRIRERPPRLPRPRPRPDSMPRP | -0.076
137 | RRIRERPPRLPRPRPRPDTCPRP | -0.0337
138 | RRIRERPPRLPRPRPRPDTYPRP | 0.0491
139 | RRIRERPPRLPRPRPRPDVPPRP | -0.117
140 | RRIRERPPRLPRPRPRPDWVPRP | 0.0322
141 | RRIRERPPRLPRPRPRPDYAPRP | -0.0187
142 | RRIRERPPRLPRPRPRPEAAPRP | 0.575
143 | RRIRERPPRLPRPRPRPEAEPRP | 0.315
144 | RRIRERPPRLPRPRPRPEAIPRP | -0.0664
145 | RRIRERPPRLPRPRPRPEAMPRP | 0.0431
146 | RRIRERPPRLPRPRPRPECWPRP | 0.447
147 | RRIRERPPRLPRPRPRPEENPRP | 0.127
148 | RRIRERPPRLPRPRPRPEFKPRP | 0.114
149 | RRIRERPPRLPRPRPRPEGVPRP | 0.172
150 | RRIRERPPRLPRPRPRPEHIPRP | -0.594
